In the assay the target is β-galactosidase (UniProt P00722 2-1024 = β-galactosidase, limits assumed). Put plainly: ELISA, plate coated with 1 µg β-gal per well, anti-FLAG-HRP detection. From the text: FIGS. 1A-D illustrate ubiquibody expression and binding. FIG. 1A is a schematic depiction of pET28a constructs used to express ubiquibodies (“uAb”) in E. coli, which includes single chain Fv antibody fragment (“scFv”), GSGSG linker (“˜”), human C-terminus of Hsc70-interacting protein (“CHIP”) without the N-terminal TPR domain (“[…]”), a FLAG-tag (“F”) and a 6×His-tag (“H6”). FIG. 1B is a western blot of the soluble fractions isolated from BL21(DE3) E. coli cells expressing wild-type human CHIP, inactivated CHIPH260Q, CHIPΔTPR, scFv13R4, scFv13R4-uAb, scFv13-uAb and scFvD10-uAb. An equivalent amount of total protein was loaded in each lane and expression was assayed using anti-FLAG-HRP. FIG. 1C is a graph showing ELISA results where a plate was coated with 1 μg β-gal per well and incubated with 160 ng of purified protein per well. Samples were performed in triplicate and error bars represent the standard deviation of the mean. […]
β-galactosidase, sequence (P00722 2-1024 limits assumed): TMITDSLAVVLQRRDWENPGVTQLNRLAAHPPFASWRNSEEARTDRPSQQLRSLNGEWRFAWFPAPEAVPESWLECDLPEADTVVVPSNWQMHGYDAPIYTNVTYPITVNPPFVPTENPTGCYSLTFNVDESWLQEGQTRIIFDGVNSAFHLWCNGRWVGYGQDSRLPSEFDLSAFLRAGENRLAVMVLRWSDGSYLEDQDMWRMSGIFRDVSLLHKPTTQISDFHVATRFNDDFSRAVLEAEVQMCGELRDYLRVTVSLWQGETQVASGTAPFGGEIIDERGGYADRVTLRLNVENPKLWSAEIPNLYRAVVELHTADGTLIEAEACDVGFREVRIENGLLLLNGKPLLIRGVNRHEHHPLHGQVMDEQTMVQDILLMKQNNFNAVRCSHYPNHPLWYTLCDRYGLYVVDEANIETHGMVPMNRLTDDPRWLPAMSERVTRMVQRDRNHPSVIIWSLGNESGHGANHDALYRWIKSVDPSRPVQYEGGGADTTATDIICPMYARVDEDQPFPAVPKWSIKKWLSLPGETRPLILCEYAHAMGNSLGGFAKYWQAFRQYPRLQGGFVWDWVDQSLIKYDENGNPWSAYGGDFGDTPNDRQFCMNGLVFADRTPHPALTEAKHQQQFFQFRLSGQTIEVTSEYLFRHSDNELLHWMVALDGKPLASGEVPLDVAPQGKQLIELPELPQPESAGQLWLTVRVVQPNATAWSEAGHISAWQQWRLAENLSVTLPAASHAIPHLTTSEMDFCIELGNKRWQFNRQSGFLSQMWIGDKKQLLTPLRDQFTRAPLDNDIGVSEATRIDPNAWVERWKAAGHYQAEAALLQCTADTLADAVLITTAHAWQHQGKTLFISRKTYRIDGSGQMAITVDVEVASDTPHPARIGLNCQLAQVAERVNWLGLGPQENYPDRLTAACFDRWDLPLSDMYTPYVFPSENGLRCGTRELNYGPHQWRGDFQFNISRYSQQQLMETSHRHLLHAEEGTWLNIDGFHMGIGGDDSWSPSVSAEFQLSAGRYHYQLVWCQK
Briefly, ELISAs were performed using a 96-well plate coated with antigen (β-gal, gpD or Hsp70) at a concentration of 10 μg/mL (1 μg of antigen per well) and incubated overnight at 4° C. […] The amount of bound anti-flag-HRP was determined by using SigmaFAST™ o-phenylenediamine dihydrochloride (OPD) tablets for detection of peroxidase activity at 492 nm.

B1: CHIPΔTPR (Construct 3: hCHIPdTPR-FLAGtag-His6tag) (enzyme)
chain: MGRLNFGDDIPSALRIAKKKRWNSIEERRIHQESELHSYLSRLIAAERERELEECQRNHEGDEDDSHVRAQQACIEAKHDKYMADMDELFSQVDEKRKKRDIPDYLCGKISFELMREPCITPSGITYDRKDIEEHLQRVGHFDPVTRSPLTQEQLIPNLAMKEVIDAFISENGWVEDYVDGADYKDDDDKGHHHHHH
notes: Control protein, purified from E. coli
As for B1, the binding result is “no binding (tested: 160 ng of purified protein per well)”.

Values taken from patent US20190233507A1 (CORNELL UNIVERSITY, published 2019).
